Reference: patent publication US20240400693A1 (Chugai, published 2024)
Numbering of substitutions follows the chain as printed. Like-named read-outs stand apart in the source and are kept apart here.

T1: HLA-DQ7.3 on Ba/F3 cells (human, UniProt P01909 24-216; P01920 33-230, limits assumed)
T1 construct: whole, on cells; also called Ba/F3-HLA-DQ7.3
T1 MHC II alpha: not shown
T1 MHC II beta: not shown

T2: HLA-DQ8 on Ba/F3 cells (human, UniProt P01909 24-216; P01920 33-230, limits assumed)
T2 construct: whole, on cells; also called Ba/F3-HLA-DQ8
T2 MHC II alpha: not shown
T2 MHC II beta: not shown

T3: HLA-DQ2.2 on Ba/F3 cells (human, UniProt P01909 24-216, limits assumed)
T3 construct: whole, on cells; also called Ba/F3-HLA-DQ2.2
T3 MHC II alpha: not shown
T3 MHC II beta: not shown

T4: HLA-DR on Ba/F3 cells (human, UniProt P01903 26-216; P79483 30-227, limits assumed)
T4 construct: whole, on cells; also called Ba/F3-HLA-DR
T4 MHC II alpha: not shown
T4 MHC II beta: not shown

T5: HLA-DQ6.3 on Ba/F3 cells (human, UniProt P01920 33-230, limits assumed)
T5 construct: whole, on cells; also called Ba/F3-HLA-DQ6.3
T5 MHC II alpha: not shown
T5 MHC II beta: not shown

T6: HLA-DQ5.1 on Ba/F3 cells (human, limits assumed)
T6 construct: whole, on cells; also called Ba/F3-HLA-DQ5.1
T6 MHC II alpha: not shown
T6 MHC II beta: not shown

B1: DQN0344H1013/L0620//DQN0385H1270/L0722-F6 (bispecific antibody)
heavy 1: QVQLVESGGGVVQPGRSLRLSCAASGFTFSSAYWMVWVRQAPGQGLEWMGAVYGGSDTTYYAKWTEGRFTISRDTSKNTLYLQMNSLRAEDTAVYYCAREPLNYYYYGELNVWGQGTLVTVSSASTKGPSVFPLAPSSKSTSGGTAALGCLVKDYFPEPVTVSWNSGALTSGVHTFPAVLKSSGLYSLSSVVTVPSSSLGTQTYICNVNHKPSNTKVDKRVEPKSCDKTHTCPPCPAPELRRGPSVFLFPPKPKDTLMISRTPEVTCVVVDVSHEDPEVKFNWYVDGVEVHNAKTKPREEQYNSTYRVVSVLTVLHQDWLNGKEYKCKVSNKALPAPIEKTISKAKGQPREPQVYTLPPSREEMTKNQVSLTCLVKGFYPSDIAVEWESNGQPENNYKTTPPYLDSDGSFFLYSKLTVDKSRWQEGNVFSCSVLHEALHAHYTREELSLSP
light 1: DIQMTQSPSSLSASVGDRVTITCQATENIYSGLAWYQQKPGKAPKLLIYYVSTLAYGIPARFSGSGSGTDFTLTISSLEPEDFAVYYCQTYEDVSAVTFGQGTKVEIKRTVAAPSVFIFPPSDEQLKSGTAEVVCLLNNFYPREAKVQWKVDNALQSGNSEESVTEQDSKDSTYSLSSTLTLSKADYEKHKVYACEVTHQGLSSPVTKSFNRGEC
heavy 2: QVQLVESGGGVVQPGRSLRLSCAASGFTFSEWYFMSWVRQAPGKGLEWVASIDTGSGSIDYAEWVEGRFTISRDNSKNTLYLQMNSLRAEDTAVYYCARDIGIDYNFWGPGTLVTVSSASTKGPSVFPLAPSSKSTSGGTAALGCLVEDYFPEPVTVSWNSGALTSGVHTFPAVLESSGLYSLSSVVTVPSSSLGTKTYICNVNHKPSNTKVDKRVEPKSCDKTHTCPPCPAPELRRGPSVFLFPPKPKDTLMISRTPEVTCVVVDVSHEDPEVKFNWYVDGVEVHNAKTKPREEQYNSTYRVVSVLTVLHQDWLNGKEYKCKVSNKALPAPIEKTISKAKGQPREPQVYTLPPSRKEMTKNQVSLTCLVKGFYPSDIAVEWESNGQPENNYKTTPPYLDSDGSFFLYSKLTVDKSRWQQGNVFSCSVLHEALHAHYTRKELSLSP
light 2: DIQMTQSPSSLSASVGDRVTITCQTTQSISSYLNWYQQKPGQPPKLLIYYASTKAEGIPARFSGSGLGTDFTLTISSLQPEDFAVYYCHYGISKVSFGQGTKVEIKRTVAAPSVFIFPPSDEQLKSGTAKVVCLLNNFYPREAKVQWKVDNALQSGNSKESVTEQDSKDSTYSLSSTLTLSKADYEKHKVYACEVTHQGLSSPVTKSFNRGEC
B2: DQN0344H1013/L0620//DQN0385H1521/L0605-F6 (bispecific antibody)
heavy 1: B1 heavy 1
light 1: B1 light 1
heavy 2: B1 heavy 2 with S30E, E31S
light 2: B1 light 2 with L67S, Q79E
B3: DQN0344H1013/L0620//DQN0385H1352/L0681-F6 (bispecific antibody)
heavy 1: B1 heavy 1
light 1: B1 light 1
heavy 2: B1 heavy 2 with T28E
light 2: B1 light 2 with Q79E

Key:
[1] = target: T1, HLA-DQ7.3 on Ba/F3 cells; assay: FACS, Ba/F3 cells; %MFI: IC17dK 0, DQN0139bb 100
[2] = target: T7, HLA-DQ7.5 on Ba/F3 cells (human, UniProt P01909 24-216; P01920 33-230, limits assumed); assay: FACS, Ba/F3 cells; %MFI: IC17dK 0, DQN0139bb 100
T7 construct: whole, on cells; also called Ba/F3-HLA-DQ7.5

[3] = target: T2, HLA-DQ8 on Ba/F3 cells; assay: FACS, Ba/F3 cells; %MFI: IC17dK 0, DQN0139bb 100
[4] = target: T8, HLA-DQ2.5 on Ba/F3 cells (human, UniProt P01909 24-216, limits assumed); assay: FACS, Ba/F3 cells; %MFI: IC17dK 0, DQN0139bb 100
T8 construct: whole, on cells; MHC class II without fused peptide; also called Ba/F3-HLA-DQ2.5

[5] = target: T3, HLA-DQ2.2 on Ba/F3 cells; assay: FACS, Ba/F3 cells; %MFI: IC17dK 0, DQN0139bb 100
[6] = target: T4, HLA-DR on Ba/F3 cells; assay: FACS, Ba/F3 cells; raw MFI
[7] = target: T5, HLA-DQ6.3 on Ba/F3 cells; assay: FACS, Ba/F3 cells; raw MFI
[8] = target: T9, HLA-DP on Ba/F3 cells (human, UniProt P20036 29-222; P04440 30-225, limits assumed); assay: FACS, Ba/F3 cells; raw MFI
T9 construct: whole, on cells; also called Ba/F3-HLA-DP
T9 sequence (P20036 29-222 limits assumed, chain 1 of 4, other chains not shown): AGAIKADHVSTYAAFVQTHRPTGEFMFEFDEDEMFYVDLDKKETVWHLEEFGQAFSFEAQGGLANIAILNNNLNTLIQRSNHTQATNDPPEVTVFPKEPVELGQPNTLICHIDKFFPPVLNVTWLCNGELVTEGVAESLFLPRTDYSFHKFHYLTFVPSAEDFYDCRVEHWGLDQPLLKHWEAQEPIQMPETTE
T9 sequence (P04440 30-225 limits assumed, chain 2 of 4, other chains not shown): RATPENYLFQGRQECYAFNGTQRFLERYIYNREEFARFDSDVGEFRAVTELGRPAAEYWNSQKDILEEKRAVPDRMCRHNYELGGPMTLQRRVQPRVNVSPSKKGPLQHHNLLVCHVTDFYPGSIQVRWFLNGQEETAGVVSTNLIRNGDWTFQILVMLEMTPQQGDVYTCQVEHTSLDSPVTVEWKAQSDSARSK

[9] = target: T6, HLA-DQ5.1 on Ba/F3 cells; assay: FACS, Ba/F3 cells; raw MFI
[10] = target: HLA-DQ2.5 on IHW09023 cells loaded with gamma 4d gliadin peptide (human; wheat); assay: cell-based or functional assay
[11] = target: HLA-DQ2.5 on IHW09023 cells loaded with omega1/2 gliadin peptide (human; wheat); assay: cell-based or functional assay
[12] = target: HLA-DQ2.5 on IHW09023 cells loaded with 33mer gliadin peptide (human; wheat); assay: cell-based or functional assay
[13] = target: HLA-DQ2.5 on IHW09023 cells loaded with gamma 2 gliadin peptide (human; wheat); assay: cell-based or functional assay
[14] = target: HLA-DQ2.5 on IHW09023 cells loaded with gamma 3 gliadin peptide (human; wheat); assay: cell-based or functional assay
[15] = target: HLA-DQ2.5 on IHW09023 cells loaded with gamma 4a gliadin peptide (human; wheat); assay: cell-based or functional assay
[16] = target: HLA-DQ2.5 on IHW09023 cells loaded with gamma 1 gliadin peptide (human; wheat); assay: cell-based or functional assay
[17] = target: HLA-DQ2.5 on IHW09023 cells loaded with BC hordein peptide (human; barley); assay: cell-based or functional assay
[18] = target: T1, HLA-DQ7.3 on Ba/F3 cells; assay: FACS, Ba/F3 cells; %MFI: IC17dK 0, DQN0139bb 100
[19] = target: T7, HLA-DQ7.5 on Ba/F3 cells; assay: FACS, Ba/F3 cells; %MFI: IC17dK 0, DQN0139bb 100; remark: listed apart in the source
[20] = target: T2, HLA-DQ8 on Ba/F3 cells; assay: FACS, Ba/F3 cells; %MFI: IC17dK 0, DQN0139bb 100
[21] = target: T8, HLA-DQ2.5 on Ba/F3 cells; assay: FACS, Ba/F3 cells; %MFI: IC17dK 0, DQN0139bb 100; remark: listed apart in the source
[22] = target: T3, HLA-DQ2.2 on Ba/F3 cells; assay: FACS, Ba/F3 cells; %MFI: IC17dK 0, DQN0139bb 100
[23] = target: T1, HLA-DQ7.3 on Ba/F3 cells; assay: FACS, Ba/F3 cells; %MFI: IC17dK 0, DQN0139bb 100
[24] = target: T7, HLA-DQ7.5 on Ba/F3 cells; assay: FACS, Ba/F3 cells; %MFI: IC17dK 0, DQN0139bb 100; remark: listed apart in the source
[25] = target: T2, HLA-DQ8 on Ba/F3 cells; assay: FACS, Ba/F3 cells; %MFI: IC17dK 0, DQN0139bb 100
[26] = target: T8, HLA-DQ2.5 on Ba/F3 cells; assay: FACS, Ba/F3 cells; %MFI: IC17dK 0, DQN0139bb 100; remark: listed apart in the source
[27] = target: T3, HLA-DQ2.2 on Ba/F3 cells; assay: FACS, Ba/F3 cells; %MFI: IC17dK 0, DQN0139bb 100

| Binder | binding result [6] | binding result [7] | binding result [8] | binding result [9] | IC50 (ng/mL), γ4d gliadin TCR, 100 µM γ4d gliadin [10] [ng/mL] | IC50 (ng/mL), ω1 gliadin TCR, 25 µM ω1/2 gliadin [11] [ng/mL] | IC50 (ng/mL), ω2 gliadin TCR, 250 nM ω1/2 gliadin [11] [ng/mL] | IC50 (ng/mL), α1a gliadin TCR, 250 nM 33mer gliadin [12] [ng/mL] | IC50 (ng/mL), α1b gliadin TCR, 250 nM 33mer gliadin [12] [ng/mL] | IC50 (ng/mL), α2 gliadin TCR, 250 nM 33mer gliadin [12] [ng/mL] | IC50 (ng/mL), γ2 gliadin TCR, 250 nM γ2 gliadin [13] [ng/mL] | IC50 (ng/mL), γ3 gliadin TCR, 100 µM γ3 gliadin [14] [ng/mL] | IC50 (ng/mL), γ4a gliadin TCR, 25 µM γ4a gliadin [15] [ng/mL] | IC50 (ng/mL), γ1 gliadin TCR, 250 nM γ1 gliadin [16] [ng/mL] | IC50 (ng/mL), BC hordein TCR, 250 nM BC hordein [17] [ng/mL] | other results |
| --- | --- | --- | --- | --- | --- | --- | --- | --- | --- | --- | --- | --- | --- | --- | --- | --- |
| B1 | no binding (tested: 0.05 micro g/mL) | no binding (tested: 0.05 micro g/mL) | no binding (tested: 0.05 micro g/mL) | no binding (tested: 0.05 micro g/mL) | 10.1 | 2.17 | 0.22 | 0.27 | 1.25 | 0.33 | 277 | 3.31 | 1150 | 1.03 | 9.7 | binding result [1]: no binding (tested: 0.05 micro g/mL); binding result [2]: no binding (tested: 0.05 micro g/mL); binding result [3]: no binding (tested: 0.05 micro g/mL); binding result [4]: no binding (tested: 0.05 micro g/mL); binding result [5]: no binding (tested: 0.05 micro g/mL) |
| B2 | no binding (tested: 0.05 micro g/mL) | no binding (tested: 0.05 micro g/mL) | no binding (tested: 0.05 micro g/mL) | no binding (tested: 0.05 micro g/mL) | 13 | 1.91 |  | 0.28 | 1.76 | 0.33 | 853 | 1.4 | 1350 | 0.68 | 8.98 | binding result [18]: no binding (tested: 0.05 micro g/mL); binding result [19]: no binding (tested: 0.05 micro g/mL); binding result [20]: no binding (tested: 0.05 micro g/mL); binding result [21]: no binding (tested: 0.05 micro g/mL); binding result [22]: no binding (tested: 0.05 micro g/mL) |
| B3 | no binding (tested: 0.05 micro g/mL) | no binding (tested: 0.05 micro g/mL) | no binding (tested: 0.05 micro g/mL) | no binding (tested: 0.05 micro g/mL) | 3.15 | 1.88 | 0.27 | 0.26 | 1.13 | 0.38 | 279 | 3.15 | 1730 | 1.71 | 11.6 | binding result [23]: no binding (tested: 0.05 micro g/mL); binding result [24]: no binding (tested: 0.05 micro g/mL); binding result [25]: no binding (tested: 0.05 micro g/mL); binding result [26]: no binding (tested: 0.05 micro g/mL); binding result [27]: no binding (tested: 0.05 micro g/mL) |
